Measured values as given in patent US20220305006A1, “COMPOSITIONS AND METHODS FOR THE TREATMENT OF NEUROLOGICAL DISEASES AND DISORDERS” (The Regents of the University of California, priority 2019, published 2022).

Experiments:
Test in all cases: cell-based or functional assay
[1] = molecular target: BACE1 expressed from a transfected plasmid in 293T cells (NRG1 and PSGL1 assays)
[2] = molecular target: Recombinant Human Cathepsin D (human) (UniProt P07339)
[3] = molecular target: BACE in CHO-7W cells (Chinese hamster ovary cells stably transfected with wildtype human APP)

Sequence of Recombinant Human Cathepsin D (human) (P07339 65-412): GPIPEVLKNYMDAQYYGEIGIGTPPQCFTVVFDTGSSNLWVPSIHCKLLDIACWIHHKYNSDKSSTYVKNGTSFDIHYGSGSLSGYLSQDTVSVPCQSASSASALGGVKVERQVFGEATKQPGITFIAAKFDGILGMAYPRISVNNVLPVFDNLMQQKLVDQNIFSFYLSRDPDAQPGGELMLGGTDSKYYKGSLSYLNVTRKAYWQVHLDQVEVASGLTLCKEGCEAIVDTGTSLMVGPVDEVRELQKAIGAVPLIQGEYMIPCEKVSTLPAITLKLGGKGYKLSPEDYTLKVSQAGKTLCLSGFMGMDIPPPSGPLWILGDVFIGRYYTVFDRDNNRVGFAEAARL

| NRG1 cleavage by BACE in co-transfected 293T cells (secreted alkaline phosphatase), EC50 [1] [µM] | PSGL1 cleavage by BACE in co-transfected 293T cells (secreted alkaline phosphatase), EC50 [1] [µM] | Cat D activity (fluorogenic substrate), IC50 [2] [µM] | decrease of BACE cleavage product sAPPβ from CHO-7W cells, EC50 [3] [µM] | Substance |
| --- | --- | --- | --- | --- |
| > 10 | > 10 | < 0.01 |  | BACE inhibitor 1 (statine BACE inhibitor 1) (peptide) |
| > 10 | > 10 |  | < 5 | recombinant sAPPα, human, amino acids 19-613 (from UniProt P05067 19-613) |
